Experiment [1] has as its target T1, Biotinylated human CD3εδ heterodimer (Fc-fused human CD3ε / Fc-fused human CD3δ) (human, biotin on the Avi tag (BirA)).
T1 chain 1: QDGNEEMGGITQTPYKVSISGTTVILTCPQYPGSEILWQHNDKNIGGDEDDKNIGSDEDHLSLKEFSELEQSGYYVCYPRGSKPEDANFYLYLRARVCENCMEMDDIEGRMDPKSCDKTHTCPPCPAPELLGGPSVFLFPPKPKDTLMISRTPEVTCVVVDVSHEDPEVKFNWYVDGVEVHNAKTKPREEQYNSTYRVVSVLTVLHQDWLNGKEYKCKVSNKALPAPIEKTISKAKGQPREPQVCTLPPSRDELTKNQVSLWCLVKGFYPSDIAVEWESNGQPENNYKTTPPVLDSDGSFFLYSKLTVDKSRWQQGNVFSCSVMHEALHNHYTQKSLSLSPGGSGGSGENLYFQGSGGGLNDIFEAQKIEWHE
T1 chain 2: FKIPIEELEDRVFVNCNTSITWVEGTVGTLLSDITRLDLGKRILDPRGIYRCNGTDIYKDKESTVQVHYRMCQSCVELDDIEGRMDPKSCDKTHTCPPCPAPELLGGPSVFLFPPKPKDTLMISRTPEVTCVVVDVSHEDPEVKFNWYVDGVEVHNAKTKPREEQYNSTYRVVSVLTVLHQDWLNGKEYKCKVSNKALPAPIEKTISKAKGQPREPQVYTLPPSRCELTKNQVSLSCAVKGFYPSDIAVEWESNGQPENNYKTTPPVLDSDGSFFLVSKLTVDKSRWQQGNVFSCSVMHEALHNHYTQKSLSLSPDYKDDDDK
The experiment in a line: BLI (Octet RED384), 37 C; biotinylated CD3εδ on streptavidin sensor, one-arm antibody in solution for 120 s. How it is done:
(§1) Using an Octet RED 384 (ForteBio), a streptavidin sensor (ForteBio) was reacted with CD3εδ prepared at 0.2 μM in ACES at 37° C. for 300 seconds. […] Response values were extracted every three seconds, and graphs were depicted using Microsoft Excel 2013 (Microsoft).
For orientation: BLI is a label-free optical method that tracks binding on a fibre tip over time.

In experiment [2] the target is T1, Biotinylated human CD3εδ heterodimer …. The experiment in a line: BLI (Octet RED384), 37 C; biotinylated CD3εδ on streptavidin sensor, one-arm antibody in solution for 120 s (0-1000 nM used, the concentration shown is not given). How it is done: as §1
The target of experiment [3] is T2, Human CD3εδ heterodimer (soluble human CD3ε with FLAG tag / soluble human CD3δ with His tag) (human, UniProt P07766 22-126; P04234 22-105).
T2 construct: Positions are counted from 1, so the entries may include the signal peptides
The experiment in a line: SPR (Biacore T200), BiAb captured on protein A, CD3εδ 0-15000 nM as analyte, 37 C. How it is done:
(3) Evaluation of Binding Properties of Clamping Antibodies by SPR Using an Amine Coupling Kit (GE Healthcare), SuRe Protein A (GE Healthcare) Prepared at 25 μg/mL in Acetate4.5 (GE Healthcare) was Immobilized onto Sensor Chip CM4 at Approximately 1200 RU Per Flow Cell.
HBS-EP+(GE Healthcare) was used for the running buffer, and the measurement was carried out at 37° C. Each antibody was reacted at a flow rate of 10 μL/min for 60 seconds to capture 1000 RU, and analyte CD3εδ prepared at 0 nM, 4.8 nM, 24 nM, 120 nM, 600 nM, 3000 nM, or 15000 nM was allowed to act at a flow rate of 30 μL/min for 60 seconds to monitor the binding phase, and HBS-EP+ was passed at a flow rate of 30 μL/min for 120 seconds to monitor the dissociation phase. The sensor chip was regenerated by passing Glycine1.5 and 25 mM NaOH, each at a flow rate of 30 μL/min for 30 seconds. The dissociation constant KD (M) was calculated based on the association rate constant ka (1/Ms) and the dissociation rate constant kd (1/s), which are kinetic parameters calculated from the sensorgram obtained by the measurement. Biacore T200 Evaluation Software (GE Healthcare) was used for the calculation of each parameter.

This is an account of results in patent US20240190960A1 (Chugai, published 2024).

Positions count from the first letter of the chain named.

For orientation: Kd means the free concentration of one partner at which half of the binding sites on the other are occupied at equilibrium, for simple one-to-one binding. Higher therefore signals weaker binding.

B1: IC17 one arm (antibody, human IgG1, kappa, L234A L235A, N297A)
heavy chain (IC17Hdk-pE22Hh): QVQLQQSGPQLVRPGASVKISCKASGYSFTSYWMHWVNQRPGQGLEWIGMIDPSYSETRLNQKFKDKATLTVDKSSSTAYMQLSSPTSEDSAVYYCALYGNYFDYWGQGTTLTVSSASTKGPSVFPLAPSSKSTSGGTAALGCLVKDYFPEPVTVSWNSGALTSGVHTFPAVLQSSGLYSLSSVVTVPSSSLGTQTYICNVNHKPSNTKVDKKVEPKSCDKTHTCPPCPAPEAAGGPSVFLFPPKPKDTLMISRTPEVTCVVVDVSHEDPEVKFNWYVDGVEVHNAKTKPREEQYASTYRVVSVLTVLHQDWLNGKEYKCKVSNKALPAPIEKTISKAKGQPREPQVYTLPPSRCELTKNQVSLSCAVKGFYPSDIAVEWESNGQPENNYKTTPPVLDSDGSFFLVSKLTVDKSRWQQGNVFSCSVMHEALHNHYTQKSLSLSPDYKDDDDK
light chain (IC17L-k0): DIQMTQSSSSFSVSLGDRVTITCKASEDIYNRLAWYQQKPGNAPRLLISGATSLETGVPSRFSGSGSGKDYTLSITSLQTEDVATYYCQQYWSTPYTFGGGTKLEVKRTVAAPSVFIFPPSDEQLKSGTASVVCLLNNFYPREAKVQWKVDNALQSGNSQESVTEQDSKDSTYSLSSTLTLSKADYEKHKVYACEVTHQGLSSPVTKSFNRGEC
antibody fragment having no variable region (Kn010): not shown
notes: also called negative control anti-KLH antibody IC17 one arm (IC17Hdk-pE22Hh/IC17L-k0//Kn010)
In the case of B1, the binding result in experiment [1] is “no binding”.

B2: CE115HA000 one arm (CE115HA000-pE22Hh/GLS3000-k0//Kn010) (antibody, human IgG1, kappa, L234A L235A, N297A)
heavy: QVQLVESGGGVVQPGRSLRLSCAASGFTFSNAWMHWVRQAPGKGLEWVAQIKAKSNNYATYYAESVKGRFTISRDDSKNSLYLQMNSLKTEDTAVYYCRYVHYGAYYGVDAWGQGTTVTVSSASTKGPSVFPLAPSSKSTSGGTAALGCLVKDYFPEPVTVSWNSGALTSGVHTFPAVLQSSGLYSLSSVVTVPSSSLGTQTYICNVNHKPSNTKVDKKVEPKSCDKTHTCPPCPAPEAAGGPSVFLFPPKPKDTLMISRTPEVTCVVVDVSHEDPEVKFNWYVDGVEVHNAKTKPREEQYASTYRVVSVLTVLHQDWLNGKEYKCKVSNKALPAPIEKTISKAKGQPREPQVYTLPPSRCELTKNQVSLSCAVKGFYPSDIAVEWESNGQPENNYKTTPPVLDSDGSFFLVSKLTVDKSRWQQGNVFSCSVMHEALHNHYTQKSLSLSPDYKDDDDK
light: DIVMTQSPLSLPVTPGEPASISCRSSQSLVHSNRNTYLHWYQQKPGQAPRLLIYKVSNRFSGVPDRFSGSGSGTDFTLKISRVEAEDVGVYYCGQGTQVPYTFGQGTKLEIKRTVAAPSVFIFPPSDEQLKSGTASVVCLLNNFYPREAKVQWKVDNALQSGNSQESVTEQDSKDSTYSLSSTLTLSKADYEKHKVYACEVTHQGLSSPVTKSFNRGEC
chain: not shown
notes: also called one-arm antibody CE115HA000
In the case of B2, the binding result in experiment [2] was “binds”.

B3: BiAb of CE115HA000-BS03a/GLS3000-k0 with the IC17 arm (bispecific antibody, human IgG1, kappa, N297A)
heavy 1: QVQLVESGGGVVQPGRSLRLSCAASGFTFSNAWMHWVRQAPGKGLEWVAQIKAKSNNYATYYAESVKGRFTISRDDSKNSLYLQMNSLKTEDTAVYYCRYVHYGAYYGVDAWGQGTTVTVSSASTKGPSVFPLAPSSRSTSESTAALGCLVKDYFPEPVTVSWNSGALTSGVHTFPAVLQSSGLYSLSSVVTVPSSSLGTKTYTCNVDHKPSNTKVDKRVEPKSCDKTHTCPPCPAPELRRGPKVFLFPPKPKDTLMISRTPEVTCVVVDVSQEDPEVQFNWYVDGVEVHNAKTKPREEQFASTYRVVSVLTVLHQDWLNGKEYKCKVSNKGLPSSIEKTISKAKGQPREPQVYTLPPSREEMTKNQVSLTCLVKGFYPSDIAVEWESNGQPENNYKTTPPYLDSDGSFFLYSKLTVDKSRWQQGNVFSCSVMHEALHNHYTQESLSLSP
light 1: B2 light
heavy 2: QVQLQQSGPQLVRPGASVKISCKASGYSFTSYWMHWVNQRPGQGLEWIGMIDPSYSETRLNQKFKDKATLTVDKSSSTAYMQLSSPTSEDSAVYYCALYGNYFDYWGQGTTLTVSSASTKGPSVFPLAPSSRSTSESTAALGCLVKDYFPEPVTVSWNSGALTSGVHTFPAVLQSSGLYSLSSVVTVPSSSLGTKTYTCNVDHKPSNTKVDKRVEPKSCDKTHTCPPCPAPELRRGPKVFLFPPKPKDTLMISRTPEVTCVVVDVSQEDPEVQFNWYVDGVEVHNAKTKPREEQFASTYRVVSVLTVLHQDWLNGKEYKCKVSNKGLPSSIEKTISKAKGQPREPQVYTLPPSREEMTKNQVSLTCLVKGFYPSDIAVEWESNGQPENNYKTTPPYLDSDGSFFLYSKLTVDKSRWQQGNVFSCSVMHEALHNHYTQESLSLSP
light 2: B1 light chain (IC17L-k0)
notes: how the CE115/IC17 BiAb was made is not described
In turn, B3 had a Kd in experiment [3] of 0.35 µM. This counts as sub-micromolar.

B4: CE115HA056 one arm (CE115HA056-pE22Hh/GLS3000-k0//Kn010) (antibody, human IgG1, kappa, L234A L235A, N297A)
heavy: B2 heavy with V101A
light: B2 light
chain: not shown
notes: One-arm format; also called one-arm antibody CE115HA056
On to B4, for which, in experiment [2], the binding result is on record as “binds”.

B5: BiAb of CE115HA056-BS03a/GLS3000-k0 with the IC17 arm (bispecific antibody, human IgG1, kappa, N297A)
heavy 1: B3 heavy 1 with V101A
light 1: B2 light
heavy 2: B3 heavy 2
light 2: B1 light chain (IC17L-k0)
notes: See m38 on the IC17 arm
In turn, B5 yielded a Kd in experiment [3] of 7.4 µM. This counts as single-digit micromolar.
